In US20170114146A1 (Hoffmann-La Roche, published 2017):

Assays:
Test in all cases: cell-based or functional assay
[1] = target: T1, CD33 (myeloid cell surface antigen CD33) on human AML cell lines HL-60 and HEL (human, UniProt P20138 18-364)
[2] = target: CD3 antigen expressed on Jurkat-NFAT reporter cells (human, UniProt P07766 23-207)
[3] = target: T1, CD33 (myeloid cell surface antigen …); remark: listed apart in the source

T1 sequence (P20138 18-364): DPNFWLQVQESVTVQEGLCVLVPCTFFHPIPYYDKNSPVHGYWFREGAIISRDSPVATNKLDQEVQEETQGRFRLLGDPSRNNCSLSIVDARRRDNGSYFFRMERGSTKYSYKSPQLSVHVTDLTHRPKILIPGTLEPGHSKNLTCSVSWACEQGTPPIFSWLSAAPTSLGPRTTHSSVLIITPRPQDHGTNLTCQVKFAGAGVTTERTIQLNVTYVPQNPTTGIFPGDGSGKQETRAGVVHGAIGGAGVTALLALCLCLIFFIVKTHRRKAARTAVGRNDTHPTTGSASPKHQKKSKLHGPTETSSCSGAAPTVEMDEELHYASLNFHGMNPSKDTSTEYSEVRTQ
Chain of CD3 antigen expressed on Jurkat-NFAT reporter cells (P07766 23-207 limits assumed): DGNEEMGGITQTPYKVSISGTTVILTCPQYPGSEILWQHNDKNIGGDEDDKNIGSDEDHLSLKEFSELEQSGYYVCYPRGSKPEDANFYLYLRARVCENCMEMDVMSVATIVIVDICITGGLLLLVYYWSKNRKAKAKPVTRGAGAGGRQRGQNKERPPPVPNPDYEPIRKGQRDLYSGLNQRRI

B1: CD33 CD3 TCB molecule B ("2+1 IgG CrossFab, inverted" with charge modifications, CD33 binders based on anti-CD33 antibody 2) (bispecific antibody)
chain 1: EVQLLESGGGLVQPGGSLRLSCAASGFTFSTYAMNWVRQAPGKGLEWVSRIRSKYNNYATYYADSVKGRFTISRDDSKNTLYLQMNSLRAEDTAVYYCVRHGNFGNSYVSWFAYWGQGTLVTVSSASVAAPSVFIFPPSDEQLKSGTASVVCLLNNFYPREAKVQWKVDNALQSGNSQESVTEQDSKDSTYSLSSTLTLSKADYEKHKVYACEVTHQGLSSPVTKSFNRGEC
chain 2: EVQLVQSGAEVKKPGSSVKVSCKASGYTITDSNIHWVRQAPGQSLEWIGYIYPYNGGTDYNQKFKNRATLTVDNPTNTAYMELSSLRSEDTAFYYCVNGNPWLAYWGQGTLVTVSSASTKGPSVFPLAPSSKSTSGGTAALGCLVEDYFPEPVTVSWNSGALTSGVHTFPAVLQSSGLYSLSSVVTVPSSSLGTQTYICNVNHKPSNTKVDEKVEPKSCDKTHTCPPCPAPEAAGGPSVFLFPPKPKDTLMISRTPEVTCVVVDVSHEDPEVKFNWYVDGVEVHNAKTKPREEQYNSTYRVVSVLTVLHQDWLNGKEYKCKVSNKALGAPIEKTISKAKGQPREPQVCTLPPSRDELTKNQVSLSCAVKGFYPSDIAVEWESNGQPENNYKTTPPVLDSDGSFFLVSKLTVDKSRWQQGNVFSCSVMHEALHNHYTQKSLSLSP
chain 3: not shown
chain 4: DIQLTQSPSTLSASVGDRVTITCRASESLDNYGIRFLTWFQQKPGKAPKLLMYAASNQGSGVPSRFSGSGSGTEFTLTISSLQPDDFATYYCQQTKEVPWSFGQGTKVEVKRTVAAPSVFIFPPSDRKLKSGTASVVCLLNNFYPREAKVQWKVDNALQSGNSQESVTEQDSKDSTYSLSSTLTLSKADYEKHKVYACEVTHQGLSSPVTKSFNRGEC
In the case of B1, the “EC50, activation of Jurkat-NFAT reporter cells via CD3 (luminescence, 5 h, HL-60 target cells, E:T 2.5:1)” value (“EC50, activation” below) [1] is reported as 0.0043 nM, the “EC50, activation” value [2] is reported as 0.0043 nM and the “EC50 [pM] 42 h, T-cell mediated killing of HL-60 tumor cells (LDH release, human pan T cells, E:T 5:1)” value [3] is reported as 18.5 pM.

B2: CD33 CD3 TCB molecule A ("2+1 IgG CrossFab, inverted" with charge modifications, CD33 binders based on anti-CD33 antibody 1) (bispecific antibody)
chain 1: QVQLVQSGAEVKKPGSSVKVSCKASGYTFTDYNMHWVRQAPGQGLEWIGYIYPYNGGTGYNQKFKSKATITADESTNTAYMELSSLRSEDTAVYYCARGRPAMDYWGQGTLVTVSSASTKGPSVFPLAPSSKSTSGGTAALGCLVEDYFPEPVTVSWNSGALTSGVHTFPAVLQSSGLYSLSSVVTVPSSSLGTQTYICNVNHKPSNTKVDEKVEPKSCDKTHTCPPCPAPEAAGGPSVFLFPPKPKDTLMISRTPEVTCVVVDVSHEDPEVKFNWYVDGVEVHNAKTKPREEQYNSTYRVVSVLTVLHQDWLNGKEYKCKVSNKALGAPIEKTISKAKGQPREPQVCTLPPSRDELTKNQVSLSCAVKGFYPSDIAVEWESNGQPENNYKTTPPVLDSDGSFFLVSKLTVDKSRWQQGNVFSCSVMHEALHNHYTQKSLSLSP
chain 2: not shown
chain 3: B1 chain 1
chain 4: DIQMTQSPSSLSASVGDRVTITCRASESVDNYGISFMNWFQQKPGKAPKLLIYAASNQGSGVPSRFSGSGSGTDFTLTISSLQPDDFATYYCQQSKEVPWTFGQGTKVEIKRTVAAPSVFIFPPSDRKLKSGTASVVCLLNNFYPREAKVQWKVDNALQSGNSQESVTEQDSKDSTYSLSSTLTLSKADYEKHKVYACEVTHQGLSSPVTKSFNRGEC
With B2 the “EC50, activation” value [1] was 0.0794 nM, the “EC50, activation” value [2] was 0.0794 nM and the “EC50 [pM] 42 h, T-cell mediated killing of HL-60 tumor cells (LDH release, human pan T cells, E:T 5:1)” value [3] was 19.8 pM.
